Experiments:
[1] = tested on: C51 murine carcinoma cell line; assay: Crystal violet cytotoxicity assay; format: cell-based; details: Mus musculus; C51 cells; crystal violet staining (FIG. 9); read-out: 50% inhibitory concentrations towards C51 cells
Procedure: C51 murine adenocarcinoma cells were seeded in 24-well plates at a density between […] per well. The plates were incubated overnight at 37° C. in humidified, 5% CO2 atmosphere to ensure the growth of the monolayer. The medium was then removed and different concentrations of doxorubicin was added. Relative cell numbers in treated and control plates were determined by crystal violet staining. Quantification is possible by solubilising the absorbed dye in ethanol 70% and determining optical density at 590 nm where absorbance is directly proportional to cell number. Relative cell number can be expressed as T/C=T−C0/C−C0×100 [T=absorbance of treated cultures, C=absorbance of control cultures, and C0=absorbance of cultures at the start of incubation (t=0)]. The results of this study are depicted in FIG. 9.

[2] = intravenously injected; cited from earlier work
[3] = biological target: recombinant human fibronectin fragment 7B89 (human) (UniProt P02751); assay: 125I-labelled protein on a 7B89/Sepharose column
[4] = tested on: C51 murine colon carcinoma; assay: In vivo treatment with L19-mTNFα fusion protein; design: species or system mouse
Procedure: Treatment with purified L19-mTNFα fusion protein was preformed in groups of 3 Balb.C mice each injected subcutaneously with 10^6 of C51 cells. At day 12 after C51 cell injection, 0.8 μg/g of L19-TNFα fusion protein was injected into the tail vein of each animal. A similar group of 3 animals was injected with Phosphate Saline Buffer, pH 7.4 (PBS). The animals were followed for systemic toxicity (weight loss) and tumor growth daily for 6 days. At the end, animals were sacrificed and tumors were placed in fixative for histological analysis and snap frozen for immunohistochemical analysis.
The efficacy of the L19-mTNFα fusion protein in suppressing tumor growth was tested on one experimental tumor model of mouse adenocarcinoma, C51. For tumor induction, 10^6 C51 cells were injected subcutaneously in Balb/C animals. After 12 days (when the tumor reaches approximately 100-200 mm^3) animals received intravenous injections of either PBS (3 animals) or L19-mTNFα fusion protein (3 animals). The animals were monitored for weight and tumor growth daily for 6 days. […] The weight loss was always less than 6% throughout the experiment time.

[5] = tested on: blood vessels of the F9 mouse tumor; assay: Microautoradiography of tumors and organs of F9 tumor-bearing mice; format: in vivo
Procedure: (§1) Tumor and organ specimens were processed for microautoradiography to assess the pattern of ^125I-L19-IL2 fusion protein distribution within the tumors or organs as described by Tarli et al. 1999 (12). Immunohistochemical procedures were carried out as reported by Castellani et al. 1994 (11). The nonparametric Mann-Whitney test was used to assess the differences in tumor weights between the three different groups of animals (mice treated with L19-IL2 fusion protein, with mixture of L19+IL2 and PBS).
(§2) Tumor and organ specimens were processed for microautoradiography to assess the pattern of ^125I-L19TNFα fusion protein distribution within the tumors or organs as described by Tarli et al (Blood, 94: 192-198, 1999). Immunohistochemical procedures were carried out as reported by Castellani et al (Int. J. Cancer, 59: 612-618, 1994).

[6] = tested on: subcutaneously implanted F9 murine teratocarcinoma; assay: Biodistribution of radiolabeled L19-mTNFα fusion protein in tumor-bearing mice; format: in vivo, mouse; details: F9 tumor-bearing 129 mice
Procedure: (§3) Purified L19-mTNFα was radiolabeled with iodine-125 using the Iodogen method (Salacinski et al., Anal. Biochem., 117: 136, 1981)(Pierce, Rockford, Ill.). After labelling, the immunoreactivity was more than 90%. 129 mice with subcutaneously implanted F9 murine teratocarcinoma were intravenously injected with 4 μg (2 μCi) of protein in 100 μl saline solution. Three animals were used for each time point. Mice were sacrificed at 3, 6, 24 and 48 hours after injection. The organs were weighed and the radioactivity was counted. All organs and tumors were placed in fixative for histological analysis and microautoradiography. Targeting results of representative organs are expressed as percent of the injected dose per gram of tissue (% ID/g).

[7] = biological target: T1, ED-B domain of fibronectin (Homo sapiens, UniProt P02751); assay: Immunoreactivity of L19-mTNFα after radiolabelling; format: binding; design: recombinant ED-B domain of human Fibronectin (FN) as antigen; made in house; details: iodine-125, Iodogen method
Procedure: as §3

[8] = tested on: blood vessels of glioblastoma tumor; assay: Immunohistochemistry on glioblastoma tumor
Procedure: as §1, §2

[9] = in vivo; cited from earlier work
[10] = biological target: T1, ED-B domain of fibronectin; assay: Binding of L19-IFN-γ fusion proteins to ED-B (ELISA, BIAcore)
tumor cells = assay: Block of tumor cell proliferation by L19-IFN-γ fusion proteins; format: cell-based; details: typical IFN-γ-dependent fashion
C51 murine carcinoma = assay: In vivo treatment with scFv-TF fusion protein, C51 tumors; design: species or system mouse
Procedure: (§4) Tumor bearing mice were obtained by subcutaneous injection of 10^6 of FE8 rat fibroblast, C51 colon carcinoma or F9 teratocarcinoma cells (Tarli et al., 1999). The cells were allowed to grow until the tumoral volume could be measured by a slide-calliper.
(§5) Mice with tumors of volume ca 200-300 mm^3 were injected with 20 ug scFv-TF fusion protein corresponding to 10 ug TF in 200 ul saline. The injection was repeated after 48 and 96 hours. Mice were monitored by tumor volume, weight and appearance including photographic documentation.
(§6) Mice with tumors of volume ca 1500 mm^3 were injected with a single dose of with 20 ug scFv-TF fusion protein corresponding to 10 ug TF in 200 ul saline. The injection was not repeated. Mice were monitored by tumor volume, weight and appearance including photographic documentation.

FXa = assay: Enzymatic activity of TF moiety, Spectrozyme FXa assay; format: biochemical; details: method of Ruf et al
Procedure: The enzymatic activity of the scFv-TF fusion protein was analyzed using the Spectrozyme FXa assay (American Diagnostica, Pfungstadt, Germany) as described by Ruf et al (1991).

[11] = tested on: F9 murine teratocarcinoma; assay: In vivo treatment with scFv-TF fusion protein, F9 tumors; design: species or system mouse; details: small F9 tumors; three injections of 20 μg (FIG. 4)
Procedure: as §4, §5

[12] = tested on: subcutaneously implanted F9 murine teratocarcinoma; assay: Biodistribution of radioiodinated scFv(L19)-TF; format: in vivo, mouse; details: injected intravenously, quantitative biodistribution (FIG. 3)
Procedure: The in vivo targeting performance was analysed by biodistribution analysis as described in Tarli et al. (1999). Briefly, purified scFv(L19)-TF fusion protein was radioiodinated and injected into nude mice with subcutaneously implanted F9 murine teratocarcinoma. Mice were sacrificed at 24 hours after injection. The organs were weighed and the radioactivity counted. Targeting results of representative organs are expressed as percent of the injected dose per gram of tissue (% ID/g).

[13] = biological target: T1, ED-B domain of fibronectin; assay: Antigen binding assays of scFv(L19)-TF (ELISA, BIAcore, antigen column)
Procedure: The immunoreactivity of the scFv-TF fusion protein was analyzed by ELISA immunoassay, by BIAcore and by affinity chromatography on antigen column, as described (Neri et al., 1996; D. Neri et al. (1997) Nature Biotechnology, 15, 1271-1275.; Tarli et al., 1999).

[14] = tested on: F9 murine teratocarcinoma, C51 murine carcinoma or FE8 tumors; assay: Tumor infarction after scFv-TF injection in tumor bearing mice; format: in vivo, mouse; details: few hours after injection
Procedure: The antitumor activity of scFv(L19)-TF and scFv(D1.3)-TF was tested in mice bearing the F9 murine teratocarcinoma, the C51 murine carcinoma or FE8 tumors (derived from subcutaneously implanted ras-transformed rat fibroblasts). Experiments were performed both in mice bearing small tumors and in mice bearing very large tumors.
as §4

[15] = tested on: FE8 tumors (ras-transformed rat fibroblasts); assay: In vivo treatment with scFv-TF fusion protein, FE8 tumors; design: species or system mouse; details: large FE8 tumors; one injection of 20 μg (FIG. 7)
Procedure: as §4, §6

T1 sequence (P02751 1271-1359 limits assumed): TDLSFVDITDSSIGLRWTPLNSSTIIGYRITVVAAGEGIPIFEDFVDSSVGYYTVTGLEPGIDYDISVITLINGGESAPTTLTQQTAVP
Sequence of recombinant human fibronectin fragment 7B89 (human) (P02751 1173-1537 limits assumed): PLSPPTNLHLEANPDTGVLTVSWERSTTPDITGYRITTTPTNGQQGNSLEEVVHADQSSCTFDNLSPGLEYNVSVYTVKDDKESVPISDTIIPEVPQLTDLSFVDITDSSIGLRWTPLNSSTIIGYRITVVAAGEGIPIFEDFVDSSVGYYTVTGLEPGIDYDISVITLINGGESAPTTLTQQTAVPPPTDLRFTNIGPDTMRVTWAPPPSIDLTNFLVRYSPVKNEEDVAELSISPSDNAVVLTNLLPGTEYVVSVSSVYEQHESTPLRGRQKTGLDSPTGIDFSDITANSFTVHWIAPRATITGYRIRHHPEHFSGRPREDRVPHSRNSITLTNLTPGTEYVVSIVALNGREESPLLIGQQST

## COc1cccc2c1C(=O)c1c(O)c3c(c(O)c1C2=O)C[C@@](O)(C(=O)CO)C[C@@H]3O[C@H]1C[C@H](N)[C@H](O)[C@H](C)O1 [doxorubicin, Doxorubicin]
[1]
  IC50: ~100 nM
[2]
  maximal tolerated dose: 8 mg/kg

## L19-IL2 fusion protein (from UniProt P60568 21-153)
[3]
  immunoreactive fraction: > 90%

## L19-mTNFα fusion protein: fusion of mouse TNFα to the scFv L19 via a 15 amino acid linker
[4]; 0.8 μg/g i.v. at day 12, followed 6 days (FIG. 23)
  tumor growth with respect to animals injected with PBS: decrease in tumor growth
[4]; throughout the experiment time (6 days)
  weight loss: less than 6%
[5]; F9 mouse tumor, microradiographic analysis
  accumulation of radiolabeled fusion protein in tumor blood vessels: Accumulation of the radiolabeled fusion protein was shown
[5]; organs of F9 tumor bearing mice
  accumulation of radiolabeled fusion protein in vessels of other organs: No accumulation
[6]; 3 h after i.v. injection
  % ID/g Bladder: 37.52 ± 26.7 % ID/g
  % ID/g Blood: 8.39 ± 5.0 % ID/g
  % ID/g Heart: 2.69 ± 0.7 % ID/g
  % ID/g Kidney: 7.96 ± 3.0 % ID/g
  % ID/g Liver: 8.42 ± 1.9 % ID/g
  % ID/g Lung: 6.56 ± 1.7 % ID/g
  % ID/g Muscle: 1.33 ± 0.3 % ID/g
  % ID/g Skin: 2.83 ± 1.3 % ID/g
  % ID/g Spleen: 9.08 ± 2.0 % ID/g
  % ID/g Thyroid: 3.21 ± 0.8 % ID/g
  % ID/g Tumor: 22 % ID/g
[6]; 3 h after i.v. injection, listed as L19-TNFa fusion protein
  % ID/g Tumor: 22.02 ± 2.3 % ID/g
[6]; 6 h after i.v. injection
  % ID/g Bladder: 18.14 ± 9.1 % ID/g
  % ID/g Blood: 2.13 ± 0.9 % ID/g
  % ID/g Heart: 1.32 ± 0.5 % ID/g
  % ID/g Kidney: 6.06 ± 5.2 % ID/g
  % ID/g Liver: 2.39 ± 0.9 % ID/g
  % ID/g Lung: 2.79 ± 1.4 % ID/g
  % ID/g Muscle: 0.76 ± 0.2 % ID/g
  % ID/g Skin: 1.68 ± 0.9 % ID/g
  % ID/g Spleen: 3.29 ± 0.9 % ID/g
  % ID/g Thyroid: 2.91 ± 1.8 % ID/g
  % ID/g Tumor: 11.57 ± 2.7 % ID/g
[6]; 24 h after i.v. injection
  % ID/g Bladder: 2.9 ± 2.2 % ID/g
  % ID/g Blood: 0.09 ± 0.0 % ID/g
  % ID/g Heart: 0.06 ± 0.0 % ID/g
  % ID/g Kidney: 0.18 ± 0.0 % ID/g
  % ID/g Liver: 0.15 ± 0.0 % ID/g
  % ID/g Lung: 0.18 ± 0.1 % ID/g
  % ID/g Muscle: 0.05 ± 0.0 % ID/g
  % ID/g Skin: 0.03 ± 0.0 % ID/g
  % ID/g Spleen: 0.13 ± 0.0 % ID/g
  % ID/g Thyroid: 1.93 ± 0.5 % ID/g
  % ID/g Tumor: 9.77 ± 1.4 % ID/g
[6]; 48 h after i.v. injection
  % ID/g Bladder: 0.08 ± 0.0 % ID/g
  % ID/g Blood: 0.01 ± 0.0 % ID/g
  % ID/g Heart: 0.01 ± 0.0 % ID/g
  % ID/g Kidney: 0.05 ± 0.0 % ID/g
  % ID/g Liver: 0.02 ± 0.0 % ID/g
  % ID/g Lung: 0.02 ± 0.0 % ID/g
  % ID/g Muscle: 0.0 ± 0.0 % ID/g
  % ID/g Skin: 0.01 ± 0.0 % ID/g
  % ID/g Spleen: 0.01 ± 0.0 % ID/g
  % ID/g Thyroid: 0.0 ± 0.0 % ID/g
  % ID/g Tumor: more than 9 % ID/g
[6]; 48 h after i.v. injection, listed as L19-TNFa fusion protein
  % ID/g Tumor: 9.55 ± 1.7 % ID/g
[7]
  immunoreactivity after labelling: more than 90%
[8]
  immunohistochemical staining of blood vessels: strongly stain blood vessels of glioblastoma tumor

## TNFα
[9]
  plasma half-life: less than 30 minutes

## scFv(L19)-(IFN-γ)2: IFN-γ homodimer (two IFN-γ joined by a polypeptide linker) fused at the C-terminal extremity of scFv(L19)
[10]
  binding to the ED-B domain of fibronectin: strong binding
Tumor cells
  block of proliferation of tumor cells: block the proliferation of tumor cells

## scFv(L19)-IFN-γ: IFN-γ monomer fused at the C-terminal extremity of scFv(L19)
[10]
  binding to the ED-B domain of fibronectin: bind with high-affinity
Tumor cells
  block of proliferation of tumor cells: block the proliferation of tumor cells

## scFv(L19)-TF: scFv(L19) specific for ED-B domain of fibronectin genetically fused to truncated tissue factor
C51 murine carcinoma; large C51 tumors, one injection of 20 μg (FIG. 6)
  antitumor effect on tumor growth: stopped tumor growth
C51 murine carcinoma; small C51 tumors, three injections of 20 μg (FIG. 5)
  reduction of growth rate: approx. 50%
FXa
  activity of the TF moiety: active
[11]
  reduction of growth rate: approx. 50%
[12]
  ability to target solid tumors: target solid tumors
[13]
  activity of the antibody moiety: active
[14]
  tumor infarction: rapid and extensive tumor infarction
[15]
  antitumor effect on tumor growth: stopped tumor growth
